# Experimental data as given in PMC10628450 (2023).
# Key:
# [1] = target: T1, FcRn-His6 (UniProt P55899 24-365); assay: BLI; pH 6
# [2] = target: T1, FcRn-His6; assay: BLI; pH 6; remark: listed apart in the source
# T1 sequence (P55899 24-297, chain 1 of 2): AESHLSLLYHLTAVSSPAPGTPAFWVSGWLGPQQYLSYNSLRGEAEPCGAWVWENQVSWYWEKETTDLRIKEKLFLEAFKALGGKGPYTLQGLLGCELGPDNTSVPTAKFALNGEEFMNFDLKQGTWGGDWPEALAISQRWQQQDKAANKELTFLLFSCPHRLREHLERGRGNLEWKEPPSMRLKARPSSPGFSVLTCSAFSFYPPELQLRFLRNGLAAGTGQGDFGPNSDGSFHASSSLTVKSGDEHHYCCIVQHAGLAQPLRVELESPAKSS
# T1 sequence (chain, as listed by the source, chain 2 of 2): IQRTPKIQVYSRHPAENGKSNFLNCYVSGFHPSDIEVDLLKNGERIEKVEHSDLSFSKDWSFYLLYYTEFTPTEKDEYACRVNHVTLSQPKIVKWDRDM
binder,measurement,setting,value
"Anti-NKp46 IgG (antibody, In-house soluble FcRn-His6, tag omitted; ectodomain limits from UniProt topology; beta-2-microglobulin is not named in the paper and is added by convention as the obligate light chain; check residues are not from the paper; N-glycosylated) chain 1: QVQLVQSGAEVKKPGSSVKVSCKASGYTFSDYVINWVRQAPGQGLEWMGEIYPGSGTNYYNEKFKAKATITADKSTSTAYMELSSLRSEDTAVYYCARRGRYGLYAMDYWGQGTTVTVSS chain 2: DIQMTQSPSSLSASVGDRVTITCRASQDISNYLNWYQQKPGKAPKLLIYYTSRLHSGVPSRFSGSGSGTDFTFTISSLQPEDIATYFCQQGNTRPWTFGGGTKVEIK",koff,[1],0.0685 s⁻¹
same,Kd,[2],361 nM
